Measurements as given in paper doi:10.1101/2022.06.30.498311 (bioRxiv, 2022).

Target: the molecule itself
Test: crystal structure

B1: Sul1 (enzyme, UniProt P0C002 1-269, looked up)
chain: MVTVFGILNLTEDSFFDESRRLDPAGAVTAAIEMLRVGSDVVDVGPAASHPDARPVSPADEIRRIAPLLDALSDQMHRVSIDSFQPETQRYALKRGVGYLNDIQGFPDPALYPDIAEADCRLVVMHSAQRDGIATRTGHLRPEDALDEIVRFFEARVSALRRSGVAADRLILDPGMGFFLSPAPETSLHVLSNLQKLKSALGLPLLVSVSRKSFLGATVGLPVKDLGPASLAAELHAIGNGADYVRTHAPGDLRSAITFSETLAKFRSR
  binding result: binds
